The text below walks through data of the DeepSol protein solubility set.

The data set in a line: soluble on expression in E. coli; label from the status in PepcDB or PDB records.
As to “MIHAARSLAGSRAGPLLALLLLGLATARAEPVDGLPLRADGDGRWSLAAGRYAGNFVIDRPLHLRCEAGAELDGGGHGSLLTLTSPGITVEGCRLRNWGRNLTELDAAIFVGKAASGAVIRGNDLRGAGFGVWLDATVGAQVLDNRIEGDESVRSQDRGNGIHLYAVKDALVRGNRVSHTRDGVYIDTSNDSSIEANRFEELRYGVHYMFTHNSRVTDNLTRRTRTGYALMQSRKLTVTGNRSIDDENYGILMNYITYSTLAGNRVEGVRSGSTGDAMISGAEGKALFIYNSLFNRIEGNSFADSALGIHLTAGSEDNRIAGNAFIGNRQQVKYVASREQEWSADGRGNYWSDYLGWDRDDDGLGDVAYEPNDNVDRLIWLYPQVRLLLNSPSIELLRWVQRAFPVVRSPGVRDSHPLMRMPAAEPRPLEHHHHHH”, the “soluble on expression in E. coli” value was “not soluble”.

With “MGRRRSHERRDLPPNLYIRNNGYYCYRDPRTGKEFGLGRDRRIAITEAIQANIELFSGHKHKPLTARINSDNSVTLHSWLDRYEKILASRGIKQKTLINYMSKIKAIRRGLPDAPLEDITTKEIAAMLNGYIDEGKAASAKLIRSTLSDAFREAIAEGHITTNHVAATRAAKSEVRRSRLTADEYLKIYQAAESSPCWLRLAMELAVVTGQRVGDLCEMKWSDIVDGYLYVEQSKTGVKIAIPTALHIDALGISMKETLDKCKEILGGETIIASTRREPLSSGTVSRYFMRARKASGLSFEGDPPTFHELRSLSARLYEKQISDKFAQHLLGHKSDTMASQFRDDRGREWDKIEIK”, the “soluble on expression in E. coli” value is “soluble”.

On to “METPETRFCKESKVVKTSRVFPLDTNNHNTLFGGKLMSYIDDIASISAARHCRRETVTASMDSVDFLKPIGQKDSVCLESYVTWVGTSSMEVFVKVIKEHLMTGERELAATSFLTFVALDSNGKPVPVPRVVPETEEEIMLHNTAVQRANERKNRKRHSQALANALGTDKPWVNVKPKTLEHHHHHH”, for which the “soluble on expression in E. coli” value was “not soluble”.

Regarding “MASMTGGQQMGRGSGIVQQQSNLLRAIEAQQHLLQLTVWGIKQGGGGSEWEREISNYTDIIYRLIEESQNQQEKNEQELLALDKWASLWNWFDITNWLWYIQHHHHHH”, the “soluble on expression in E. coli” value is reported as “soluble”.

For “MQTWQLPEHIADVLPTNARQLESAREQLLALFRVHGYELVQPPLMEYAHSLLTHIDAGLSLKTILVTDRLSGRQLGIRADITPQVARIDAHLLSANQGINRLCYAGPVLHAQPDGLLNMREPLQAGAEMYGFADIRGDIELIDLMLKSMKIADMGKVLLSLGHIGIFRALSDAAHLDAGQSATLLALMQDKDTGAVEAQVKAWKLDGMWAKAFSLLPRLYGGREVLSDARGRLPDLSAVGGALGELQAVCDAFPDCEIHIDLSELRVDNYHTGLLYAAYAADFHDAVARGGRYDGLGGYFGRARPATGFSFDLRSFIGRLPAIERQPAVLVDAEDAEAAHEAVEALREQGQCVVIDYGIGHNVSEELAGRLKKTDGVWQVVKR”, the “soluble on expression in E. coli” value is given as “not soluble”.

Turning to “LKPYCRPSTSVVLQGLPMVARKTLFMLPDGGGSAFSYASLPRLKSDTAVVGLNCPYARDPENMNCTHGAMIESFCNEIRRRQPRGPYHLGGWSSGGAFAYVVAEALVNQGEEVHSLIIIDAPIPQAMEQLPRAFYEHCNSIGLFATQPGASPDGSTEPPSYLIPHFTAVVDVMLDYKLAPLHARRMPKVGIVWAADTVMDERDAPKMKGMHFMIQKRTEFGPDGWDTIMPGASFDIVRADGANHFTLMQKEHVSIISDLIDRVMA”, the “soluble on expression in E. coli” value is listed as “soluble”.

On to “MGSDKIHHHHHHMTWQVWRLGGLAITMVASLLLLDACSRDKAPVQIRSAVSQLPQTLDPRYATDAASARVNRLIYRSLVDFDVHARPAPSLASWRVLSPRLFRFTLGRHGRDFHDGRYLTAEDVAATYQSVIELADSPHAAEFANISKIEVRDENTLDFFLHDADSNFPARLILGILPAELIARQHDFSREPVGSGPFKFVSWQRSLKLERRSDKKRFVFEEVRDPTVRVLKLVRGEADILQGDLPPELVNYLKQQPGIDVQESEGSNFAYIGLNLQDDVLRNPLVRQALAHAIDRESIIKHALVGHSRLAESILPPEHWAGNGNLKPYEYNPVLARELLLRAGVSLPLKLVYKTSTDAQRVRLATMMQAQMRDAGIQLEIRSLDWGTFFDDIKRGNFQLYGLMWVGIKTPEIYHHAFHSSSVPPKGANRGHYADPKTDELIAVSDWASVAERVHAQLPYIPLWYEGQFAATRDHIKGYSLQPDGSWDGLVDVKRSKLKSVFPGRNQSAGM”, for which the “soluble on expression in E. coli” value was “not soluble”.

“MIHSLFLINSSGDIFLEKHWKSVVSRSVCDYFFEAQERATEAENVPPVIPTPHHYLLSVYRHKIFFVAVIQTEVPPLFVIEFLHRVVDTFQDYFGVCSEPVIKDNVVVVYEVLEEMLDNGFPLATESNILKELIKPPTILRTVVNTITGSTNVGDQLPTGQLSVVPWRRTGVKYTNNEAYFDVVEEIDAIIDKSGSTVTAEIQGVIDACVKLTGMPDLTLSFMNPRLLDDVSFHPCVRFKRWESERILSFIPPDGNFRLLAYHVSAQNLVAIPVYVKHSISFRDSSSLGRFEITVGPKQTMGKTIEGVIVTSQMPKGVLNMSLTPSQGTHTFDPVTKMLSWDVGKINPQKLPSLKGTMGLQVGASKPDENPTINLQFKIQQLAISGLKVNRLDMYGEKYKPFKGIKYMTKAGKFQVRT”: the “soluble on expression in E. coli” value is on record as “not soluble”.

As for “MELRIFFDGNCPLCSAEMRQLKARDPDDHIELVDLNAENFSSRFSYIDKDYANTILHGETASGQVLLGLDVTCKAWALTGTRPWIQVLRLPLIKPLADWCYLRFAKHRYRISYLLTGKARCDSQCQLPKLEHHHHHH”, the “soluble on expression in E. coli” value was “soluble”.

Regarding “MHRRGVGAGAIAKKKLAEAKYKERGTVLAEDQLAQMSKQLDMFKTNLEEFASKHKQEIRKNPEFRVQFQDMCATIGVDPLASGKGFWSEMLGVGDFYYELGVQIIEVCLALKHRNGGLITLEELHQQVLKGRGKFAQDVSQDDLIRAIKKLKALGTGFGIIPVGGTYLIQSVPAELNMDHTVVLQLAEKNGYVTVSEIKASLKWETERARQVLEHLLKEGLAWLDLQAPGEAHYWLPALFTDLYSQEITAEEAREALP”, the “soluble on expression in E. coli” value is given as “soluble”.

“MIGPENCNSVSEPIAYVIILAGGRSSRMGYDKAQVMVDGRRLIDLCLESIASVHAHPIVVSGQDLQLTAAVTQVMEEPAFGGPVAGIAAGMRCCDTKAGLIGVIAVDAPRSGNYLNQLRRVVLTHPEVGVAHAVVEGYDQPLLAVWRYEALTQALHALGSPRNVAAKRLLRSATTPVIAVPVDSSARDYDTVAELSALGRVRLRLEHHHHHH”: the “soluble on expression in E. coli” value is reported as “not soluble”.

Take “MPNTADQVDPLLASLSHFVDHTDLLAEHTMNAVEWEAVEVLMPRILRGKSKEDVKQLLLAEIDGMSKKRLDAVLAGETLEESSSSEDEEEQVIGSAGESEKSESPEIPEPEAKMEEQAVEAAEASEASDDGREDGEIRDDQGNTTSTPPDPGSPKSPEKGEAEQLDTDEEIDRLLEEDLEDFL”: the “soluble on expression in E. coli” value is listed as “soluble”.

For the sequence “NLHLLEYLHILPLDKIGIPKFAPKLDRKKHGDLDRPNLIYPADEQIYIHVYPDKNDMRNFYIPIEPTLLTGVDELLKEVEIRLVDYITDIDF”, the “soluble on expression in E. coli” value is recorded as “not soluble”.

On to “MEVDPGSDDVEADRETRAQKLKLKRNVKFRAQMRRFDEYCGVTNLTVDDLNWPLISGIPLQRQRLTGATYYDDSLLDQNPWDEFSIDRFLEITSIQLITAGAGYERNDEITRFVFQRTMKTIVTYCNFMYDLARRNGKVQITRFELQDLIHRDEFRFYMYFRQFLPNPDPNCTAFSNHYTSLLHTLYFNIPGMPQFWNNSQMYNYAATRGQRLVQNIAAFYPPEYFWNEDESKYHTTFVVPRGTEFSKFYARRFHEALGMPPLENEIITVLDWLAKLCILEIVYHTTIWCDITGFGGLPRIEHYRLAMENVEDIIFDLAIDDFSISRLQLQISPFEISRYSPLDVSGYYETIKRKKDIEEYQNRFYEVHYSDDVRIMNVYATDCSRKR”, for which the “soluble on expression in E. coli” value is “not soluble”.

On to “MAHHHHHHMNIFDHQIKNVDKGNVVAILGAQWGDEGKGKIIDMLSEYSDITCRFNGGANAGHTISVNDKKYALHLLPCGVLYDNNISVLGNGMVIHVKSLMEEIESVGGKLLDRLYLSNKAHILFDIHQIIDSIQETKKLKEGKQIGTTKRGIGPCYSTKASRIGIRLGTLKNFENFKNMYSKLIDHLMDLYNITEYDKEKELNLFYNYHLKLRDRIVDVISFMNTNLENNKKVLIEGANAAMLDIDFGTYPYVTSSCTTVGGVFSGLGIHHKKLNLVVGVVKSYLTRVGCGPFLTELNNDVGQYLREKGHEYGTTTKRPRRCGWLDIPMLLYVKCINSIDMINLTKLDVLSGLEEILLCVNFKNKKTGELLEKGCYPVEEEISEEYEPVYEKFSGWKEDISTCNEFDELPENAKKYILAIEKYLKTPIVWIGVGPNRKNMIVKKNFNLN”, for which the “soluble on expression in E. coli” value is listed as “soluble”.

In the case of “MGSDKIHHHHHHMIMSEKSIVQEARDIQLAMELINLGARLQMLESETQLSRGRLIRLYKELRGSPPPKGMLPFSTDWFMTWEQNIHASMFCNAWQFLLKTGLCSGVDAVIKAYRLYLEQCPQPPEGPLLALTRAWTLVRFVESGLLELSSCNCCGGNFITHAHQPVGSFACSLCQPPSRAVKRRKLSRDAADIIPQLLDEQIEQAV”, the “soluble on expression in E. coli” value is reported as “not soluble”.

In the case of “MAKRFTLKDAEELYLVPHWSGGFFRVGEKGDLEVTPLGPKGPAASLLEIVEALRDEGRPLPLVLRFPQILEARVRDLNEAFLEAMAKYGYQGTYRGVYPVKVNQRRLVLETVARAGRPYHLGLEAGSKPELALILAQDLSEEALITTNGFKDDDFVRLALMGRKLGRNVVITLEKFAELFRVLRLSKELGVKPLLGIRYKLKAKGAGQWEASGGENAKFGLTTPEIVRAVEVLQEEGLLDALVMLHAHIGSQVTDIRRIKAAVREAAQTYVQLRKLGAPLRYLNLGGGLAVDYDGSKTNFYASANYTLSEYAENLVYVTKEVVEAQGEPHPILVTESGRAITAYHEVLVLQVIDVIAPPGEARPSPPPPEAHPLVKELWESLQSLSPKNFQEVYHDAFADKETLQTLYDLGLVSLRDRALAEEIFYHIARRVQTIAQNLPYVPDELEDLEKLLADKLVCNFSVFQSLPDAWAIHQLFPVVPLSRLLEPPTRRATLVDISCDSDGKMDRFIDLHDVRQTLPVHPVRPGEPYYLGVFLVGAYQDVLGSNHNLFGQVGEAHVRVEEEGFAIERFVGGETAERVIEKMGFTARELMLGVERLVRQSRLSPVEKGAFLERYARELQGYTYLED”, the “soluble on expression in E. coli” value is on record as “soluble”.

“MNMKTIEDVFIHLLSDTYSAEKQLTRALAKLARATSNEKLSQAFHAHLEETHGQIERIDQVVESESNLKIKRMKCVAMEGLIEEANEVIESTEKNEVRDAALIAAAQKVEHYEIASYGTLATLAEQLGYRKAAKLLKETLEEEKATDIKLTDLALNNVNKKAENKA”: the “soluble on expression in E. coli” value is recorded as “soluble”.

For the sequence “METGAGIGLYPLHRCKTIYLVRHAQGIHNVDGEKNYKAYMSHDYFDAELTQLGWKQVDSLRKHVHSSGLHKKIELVISSPLMRTLQTAVGVFGGEGYTDMSDVLPLMVANAGNSSRAAISSLNCPPVITEESCREHLGVHPCDQRRSISDYQFLFPAVDFSLIESEEDKLWKADVRETIEELAARGKKFLNWLWTRKEKEIAIVTHSGFLFHTLNALQNECHPDVKKEICGHFANCELRSMVIVDRSMLGSDSSVTDYPGKIPKGIDLPSDAVVDDNNIKVE”, the “soluble on expression in E. coli” value is given as “soluble”.

With “GPGSMSLKKKTFKQRIRKNDMKQRHQIGFGLRKRMGAARRIRNRYDSVDDGTRPMEMIVSEIAEGTAVPSQEAVLDPRSLTDLLLRPAESPVSNNSASASANVATTSCAVASKSNGCSSALWKRGSSKSSALLTSVPLASEKVLPSLPLAPDDPLALPDTRVFEEEERQQRLAREAAARQNENKNLYRHSGQPYLFWERVGLHPALLQALRDLHFTHPTPVQEEVLPNVLASGDEGLARQRSSEADKKSKKHKRAGGAADSAGHDVVVSAETGSGKTLVFALPILQDLLTTLDTERVSAVTPTSSAEAVHEKATGQASSDAAWRERS”, the “soluble on expression in E. coli” value is listed as “soluble”.
